Three substances from PMC10629557 can be followed below.

The target in one experiment is Mcm4 (UniProt P30665). The experiment can be described thus: CoSMoS: labelled Mcm2-7 arrival at ORC-Cdc6-bound DNA. The following applies: reference: wild-type ORC, no CDK.
Experiment [1] concerns the target origin recognition complex (ORC), wild type, unphosphorylated (S. cerevisiae) (UniProt P54784). The experiment can be described thus: colocalization single-molecule spectroscopy (CoSMoS); surface-tethered ARS1 DNA^AF488; 2.5 nM ORC, 10 nM Cdc6, 2.5 nM labeled Mcm2-7-Cdt1, ATP; time to the first Mcm2-7 association with each DNA, taken by the paper as OCCM formation; apparent first-order association rate, background binding at non-DNA sites fitted. The following applies: remark: other sources report otherwise.

The target of experiment [2] is phosphorylated origin recognition complex (ORC treated with Clb5-Cdk1 and ATP) (S. cerevisiae) (UniProt P54784). The description is as above. The following applies: remark: other sources report otherwise.
In experiment [3] the target is ORC^6C-DY549, wild type, without CDK treatment (S. cerevisiae) (UniProt P54784). Description: FRET or BRET; single-molecule FRET on surface-tethered ARS1 DNA between ORC^6C-DY549 (donor on Orc6 C-terminus) and Mcm2-7^3N-DY650 (acceptor on Mcm3 N terminus), with Cdc6 and Cdt1; MO complex (ORC on the N-terminal face of Mcm2-7) scored if E_FRET > 0.5 for two consecutive frames; low E_FRET in the OCCM. On the technique in general: In BRET a luciferase serves as donor, and the signal depends on an acceptor being close.

Consider “Orc6 (from UniProt P38826) wild-type ORC treated with Clb5-Cdk1 and ATP”, for which the “other: apparent association rate ka” value with Mcm4 is “weaker; reference 0.0047 ± 0.0003”.
For “Cdt1-Mcm2-7^4SNAP-JF646 (Mcm2-7-Cdt1 complex, Mcm2-7 fluorescently labeled at the N-terminus of Mcm4), P29469 1-868; P24279 1-971; P30665 1-933; P29496 1-775; P53091 1-1017; P38132 1-845; P47112 1-604”, the values for the apparent first-order association rate ka of first Mcm2-7-Cdt1 recruitment (OCCM formation) in experiment [1] and in experiment [2] were 0.0047 s⁻¹ and 0.002 s⁻¹, respectively.
“Mcm2-7^3N-DY650 (Mcm2-7 complex with an acceptor fluorophore at the N terminus of Mcm3) (from UniProt P29469 1-868; P24279 1-971; P30665 1-933; P29496 1-775; P53091 1-1017; P38132 1-845)” gave a percent of first Mcm2-7 landings with the high-E FRET state (MO complex formation) in experiment [3] of 21%.
